{
  "source": "patent US20120301899A1",
  "about": "(AGENCY FOR SCIENCE TECHNOLOGY AND RESEARCH, published 2012)",
  "binders": {"B1": {"name": "monoclonal antibody mAb 84 (antibody, V domains shown)", "VH": "QVQLQQSGGGLVQPGGSMKLSCVASGFTFSNYWMNWVRQSPEKGLEWVAEIRLKSNNYATHYAESVKGRFTISRDDSKSSVYLQMNNLRAEDTGIYYCTGERAWGQGTTVTVSS", "VL": "DIELTQSPAIMSASPGEKVTMTCSASSSVNYMYWYQQKPGSSPRLLIYDTSNLASGVPVRFSGSGSGTSYSLTISRMEAEDAATYYCQQWSSYPYTFGGGTKLEIKR"}},
  "molecular_target": "T1, podocalyxin-like protein-1 (PODXL) (human, UniProt O00592 23-558)",
  "T1 construct": "whole, on cells; In the flow cytometry experiments the target is undifferentiated hESC; also called PCLPI; Podocalyxin-like protein 1 precursor",
  "T1 sequence (looked up)": "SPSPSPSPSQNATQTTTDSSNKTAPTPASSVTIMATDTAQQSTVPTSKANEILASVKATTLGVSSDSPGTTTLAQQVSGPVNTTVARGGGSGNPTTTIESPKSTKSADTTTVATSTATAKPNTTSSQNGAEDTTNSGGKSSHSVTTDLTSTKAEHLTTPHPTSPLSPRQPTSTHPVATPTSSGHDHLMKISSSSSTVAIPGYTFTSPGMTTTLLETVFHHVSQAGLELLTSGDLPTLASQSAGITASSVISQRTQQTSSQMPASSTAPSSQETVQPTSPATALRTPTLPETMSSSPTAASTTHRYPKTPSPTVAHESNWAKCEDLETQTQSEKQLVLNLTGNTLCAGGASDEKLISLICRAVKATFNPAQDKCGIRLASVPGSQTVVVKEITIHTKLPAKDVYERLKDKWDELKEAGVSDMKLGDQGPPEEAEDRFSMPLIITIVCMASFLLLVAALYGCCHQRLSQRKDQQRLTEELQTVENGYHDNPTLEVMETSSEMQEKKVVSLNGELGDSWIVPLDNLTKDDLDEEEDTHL",
  "assay": "kinetics of binding to PODXL on the surface of hESCs; method not stated",
  "data": [
    {"binder": "B1", "values": [
      {"measurement": "Kd", "value": 40, "unit": "nM"},
      {"measurement": "koff", "value": 0.0029, "unit": "s⁻¹"},
      {"measurement": "kon", "value": 71000, "unit": "M⁻¹ s⁻¹"}
    ]}
  ]
}
